This is an account of results in US20230414780A1 (VECT HORUS, published 2023).

Experiment [1] deals with T1, murine TfR expressed by murine neuroblastoma Neuro-2a cells (mouse, UniProt Q62351 1-763).
T1 construct: whole, on cells; also called mTfR (N2a cells)
In words: competition with the fluorescent reference VHH on Neuro-2a cells as in FIG. 25; Ki/app on mTfR, free VHH. As to the method: The binding of VHH-Oligo and VHH-hFc-Oligo conjugates to mTfR was evaluated using a competition assay on living cells expressing the receptor of interest, namely murine neuroblastoma Neuro-2a cells (N2a). N2a cells were grown in Dulbecco's Modified Eagle Medium (DMEM) GlutaMAX supplemented with 10% v/v FBS in 5% CO₂ at 37° C. Cells were seeded two days before experiments in 96-well plates at a density of 50.000 cells/well. […] Resuspended cells were transferred in a 96-deepwell plate (V-bottom) containing 1% fetal bovine serum (FBS)/0.02% sodium azide in phosphate-buffered saline (PBS) and then centrifuged for 5 min at 2000 rpm at 4° C. After removing the supernatant, 5 mM EDTA in D-PBS and 4% paraformaldehyde (PFA) (v/v 1:1) were added into wells to fix cells for 15 min at room temperature. PFA was removed by centrifugation (5 min, 3000 rpm, 4° C.) and cells were resuspended with 5 mM EDTA in D-PBS. Then the cellular A680-associated fluorescence signal was quantified using an Attune™ NxT flow cytometer (Thermo Fisher Scientific) equipped with Attune™ NxT v3.1.2. Experimental data (experimental triplicates) were fitted with GraphPad Prism® software using a nonlinear fit to determine the apparent Ki inhibition constants.

Experiment [2] deals with T2, human transferrin receptor (hTfR) fused to EGFP, on CHO cells (human, UniProt P02786 1-760).
T2 construct: whole, on cells; also called human TfR; CHO-hTfR-EGFP; not shown: EGFP from pEGFP-C1 vector, fused to the N-terminal (intracellular) end of hTfR
The experiment can be described thus: competition flow cytometry on CHO-hTfR-EGFP cells, 4 C; VHH competitor in dilution series, phage-C5 tracer at EC80, anti-M13-A647. As to the method:
FIGS. 17A-17D: Competition assays between VHHs and phage-VHHs. CHO-hTfR-EGFP cells were incubated 1 hr at 4° C. with VHHs (competitors) at increasing concentrations. Phage-VHHs (tracers) were then added at EC80 and incubated for 1 more hr. Phage-VHHs were detected with an anti-M13-A647 antibody (1/200). Fluorescence levels were assessed using flow cytometry. The ratio of fluorescence intensity for each point was normalized with the corresponding EGFP signal (receptor expression) and gave rise to the arbitrary unit. Data are presented as mean±SEM of independent experiments.
To evaluate whether selected VHHs compete one with the other for binding to the TfR receptor, competition assays using flow cytometry experiments were performed. All experiments were performed in 96 well plates using 2×10⁵ cells/well, at 4° C. with shaking. CHO cell line expressing the hTfR fused to EGFP was saturated with PBS/BSA 2% solution during 30 min to avoid nonspecific binding, followed by incubation with VHH (competitors) at increasing concentrations for 1 hr. Then, phage-VHHs (tracers) at EC80 were added and incubated 1 hr more. To detect the phage-VHHs, cells were washed twice with PBS/BSA 2% and incubated for 1 hr with an Alexa647-conjugated anti-M13 antibody. […] Fluorescence levels were assessed using an Attune NxT flow cytometer (Thermo Fisher Scientific). […]

Experiment [3] deals with T2, human transferrin receptor (hTfR) fused …. The experiment can be described thus: apparent Kd, flow cytometry, CHO cells. In outline: (§1)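 CHO cells expressing TfR-EGFP fusions, blocked in PBS/BSA 2%, then incubated with increasing VHH concentrations for 1 hr at 4° C. Bound VHH detected via anti-6His antibody and Alexa647 secondary, cells PFA-fixed, read by flow cytometry. Apparent Kd from nonlinear fit.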
Background: Flow cytometry measures light scatter and fluorescence of single cells or particles in a stream.

Experiment [4] concerns the target T3, rhesus monkey transferrin receptor (rhTfR) fused to EGFP, on CHO cells (rhesus monkey).
T3 construct: whole, on cells; also called rhesus monkey TfR
In words: apparent Kd, flow cytometry, CHO cells. An outline of the steps:
as §1

The target in experiment [5] is T4, mouse transferrin receptor (mTfR) fused to EGFP, on CHO cells (mouse, UniProt Q62351 1-763).
T4 construct: whole, on cells; also called mouse TfR; CHO-mTfR-EGFP; not shown: EGFP
The experiment can be described thus: apparent Kd, flow cytometry, CHO cells. An outline of the steps: as §1

Experiment [6] addresses T5, mouse TfR ectodomain fused to a mouse IgG1 Fc fragment (mouse, UniProt Q62351 89-763).
T5 construct: extracellular domain; not shown: mouse IgG1 Fc fragment
In words: SPR, kinetic. An outline of the steps: (§2)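 TfR–mouse Fc fusions, produced in-house, captured on HC 1500M or CM5 chips either directly or via immobilized anti-mouse IgG. VHHs injected in single-cycle or multiple-cycle kinetic mode on Biacore T200.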

For experiment [7], the target named is T6, rhesus monkey TfR ectodomain fused to a mouse IgG1 Fc fragment (rhesus monkey, UniProt I0FKY7 89-760).
T6 construct: extracellular domain; not shown: mouse IgG1 Fc fragment
In words: SPR, at equilibrium. An outline of the steps: as §2
For orientation: SPR reads the build-up and loss of mass on a sensor chip optically.

For experiment [8], the target named is T5, mouse TfR ectodomain fused to a mouse …. In words: SPR, at equilibrium. In outline: as §2

T5 sequence (Q62351 89-763): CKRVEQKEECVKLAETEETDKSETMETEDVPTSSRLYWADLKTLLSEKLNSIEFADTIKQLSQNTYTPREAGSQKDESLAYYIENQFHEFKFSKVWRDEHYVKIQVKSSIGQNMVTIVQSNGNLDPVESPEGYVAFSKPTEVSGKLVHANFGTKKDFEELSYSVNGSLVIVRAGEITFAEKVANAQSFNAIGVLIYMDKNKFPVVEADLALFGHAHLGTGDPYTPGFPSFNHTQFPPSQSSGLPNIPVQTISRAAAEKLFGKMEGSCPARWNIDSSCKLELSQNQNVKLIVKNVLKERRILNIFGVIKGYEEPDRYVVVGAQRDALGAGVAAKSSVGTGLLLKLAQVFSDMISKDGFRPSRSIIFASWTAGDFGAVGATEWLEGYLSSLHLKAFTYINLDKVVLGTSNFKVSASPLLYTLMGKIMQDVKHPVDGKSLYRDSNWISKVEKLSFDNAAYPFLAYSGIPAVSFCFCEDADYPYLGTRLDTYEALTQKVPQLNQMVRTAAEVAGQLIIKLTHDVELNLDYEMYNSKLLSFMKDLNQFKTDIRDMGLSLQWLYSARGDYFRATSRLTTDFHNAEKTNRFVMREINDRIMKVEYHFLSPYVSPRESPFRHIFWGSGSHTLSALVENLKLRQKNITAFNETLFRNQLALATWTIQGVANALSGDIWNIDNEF
T2 sequence (P02786 whole entry, the tested form may be a part): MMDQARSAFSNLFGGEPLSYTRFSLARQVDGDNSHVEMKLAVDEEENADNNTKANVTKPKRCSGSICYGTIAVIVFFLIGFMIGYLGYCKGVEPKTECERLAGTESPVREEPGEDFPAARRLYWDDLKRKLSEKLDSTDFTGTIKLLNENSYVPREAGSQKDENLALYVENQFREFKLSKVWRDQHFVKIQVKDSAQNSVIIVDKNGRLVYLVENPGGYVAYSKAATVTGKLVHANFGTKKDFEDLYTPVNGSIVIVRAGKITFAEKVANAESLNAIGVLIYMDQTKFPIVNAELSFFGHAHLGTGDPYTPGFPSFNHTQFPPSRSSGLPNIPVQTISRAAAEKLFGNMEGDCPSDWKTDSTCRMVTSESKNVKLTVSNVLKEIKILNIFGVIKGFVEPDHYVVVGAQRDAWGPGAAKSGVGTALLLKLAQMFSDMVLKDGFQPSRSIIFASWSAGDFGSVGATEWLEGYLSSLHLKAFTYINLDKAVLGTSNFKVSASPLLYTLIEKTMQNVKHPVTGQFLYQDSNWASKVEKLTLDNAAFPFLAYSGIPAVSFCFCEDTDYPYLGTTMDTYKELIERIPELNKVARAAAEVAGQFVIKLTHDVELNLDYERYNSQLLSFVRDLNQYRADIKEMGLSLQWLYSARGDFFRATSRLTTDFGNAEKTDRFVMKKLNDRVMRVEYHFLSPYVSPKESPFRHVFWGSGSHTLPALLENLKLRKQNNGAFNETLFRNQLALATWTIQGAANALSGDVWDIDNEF
T1 sequence (Q62351 whole entry): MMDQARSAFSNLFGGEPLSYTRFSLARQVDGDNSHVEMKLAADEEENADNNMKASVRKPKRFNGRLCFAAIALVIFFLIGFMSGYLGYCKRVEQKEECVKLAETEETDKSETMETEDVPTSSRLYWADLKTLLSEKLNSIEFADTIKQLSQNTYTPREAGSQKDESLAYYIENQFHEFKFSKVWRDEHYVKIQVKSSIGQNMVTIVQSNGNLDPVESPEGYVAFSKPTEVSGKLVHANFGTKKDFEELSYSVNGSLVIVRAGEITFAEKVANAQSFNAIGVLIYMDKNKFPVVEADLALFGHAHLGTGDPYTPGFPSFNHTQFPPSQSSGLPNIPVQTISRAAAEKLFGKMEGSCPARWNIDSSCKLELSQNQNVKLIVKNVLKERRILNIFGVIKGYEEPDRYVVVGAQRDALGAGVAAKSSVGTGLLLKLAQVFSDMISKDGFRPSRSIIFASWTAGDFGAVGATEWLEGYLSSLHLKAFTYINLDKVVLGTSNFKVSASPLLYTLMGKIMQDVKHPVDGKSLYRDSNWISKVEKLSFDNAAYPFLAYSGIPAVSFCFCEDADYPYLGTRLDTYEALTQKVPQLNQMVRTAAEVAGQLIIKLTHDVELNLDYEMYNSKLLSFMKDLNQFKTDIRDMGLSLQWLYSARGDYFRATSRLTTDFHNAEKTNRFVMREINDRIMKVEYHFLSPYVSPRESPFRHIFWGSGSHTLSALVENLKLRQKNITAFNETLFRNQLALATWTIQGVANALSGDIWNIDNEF
T4 sequence (Q62351 whole entry, the tested form may be a part): as the sequence (Q62351 whole entry) above

B1: VHH A (C5) (VHH)
VHH: EVQLVESGGGVVQPGGSLKLSCVASGTDFSINFIRWYRQAPGKQREFVAGFTATGNTNYADSMKGRFTISRDNTKNAVYLQIDSLKPEDTAVYYCYMLDKWGQGTQVTVSS
notes: form with the C-terminal myc-His6 tag (x = 1), since the VHHs were detected with anti-6His or anti-cMyc; the same holds for m12 to m126
The koff is the rate constant with which the complex falls apart. One may read the kon as a measure of how fast the partners come together. Turning to B1, the Ki in experiment [1] is 0.319 µM. For the same molecule, the “IC50 (read off the curve)” value in experiment [2] was roughly 0.05 µM. Further, the Kd in experiment [3] is 0.0027 µM; in experiment [4], 0.0049 µM; in experiment [5], 0.05 µM; in experiment [6], 0.0885 µM; in experiment [7], 0.0131 µM; in experiment [8], 0.0882 µM. The same molecule came in with an off-rate (koff) in experiment [6] of 0.0447 s⁻¹. For the same molecule, in experiment [6], the association rate constant (kon) is 915000 M⁻¹ s⁻¹.
